Measurements reported in publication PMC9482650, “Quantitative fragmentomics allow affinity mapping of interactomes” (Nature Communications, 2022).

T1: GRIP1_3, Q9Y3R0
T1 sequence (Q9Y3R0 247-346, limits assumed, looked up): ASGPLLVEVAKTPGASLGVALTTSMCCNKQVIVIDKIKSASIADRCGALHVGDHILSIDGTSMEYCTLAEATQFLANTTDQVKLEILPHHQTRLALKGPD

T2: APBA1_2, Q02410
T2 sequence (Q02410 742-832, limits assumed, looked up): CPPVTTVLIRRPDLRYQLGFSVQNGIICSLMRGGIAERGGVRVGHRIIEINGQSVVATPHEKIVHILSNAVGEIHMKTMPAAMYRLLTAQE

T3: APBA2_1, Q99767
T3 sequence (Q99767 563-664, limits assumed, looked up): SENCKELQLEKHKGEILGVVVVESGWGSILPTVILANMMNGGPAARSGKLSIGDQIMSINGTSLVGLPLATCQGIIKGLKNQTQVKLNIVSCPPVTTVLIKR

T4: SYNJ2BP, P57105
T4 sequence (P57105 8-110, limits assumed, looked up): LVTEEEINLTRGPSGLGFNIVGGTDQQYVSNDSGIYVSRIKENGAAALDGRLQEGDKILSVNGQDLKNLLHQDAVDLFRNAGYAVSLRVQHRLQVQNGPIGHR

T5: NHERF3_3, Q5T2W1
T5 sequence (Q5T2W1 238-333, limits assumed, looked up): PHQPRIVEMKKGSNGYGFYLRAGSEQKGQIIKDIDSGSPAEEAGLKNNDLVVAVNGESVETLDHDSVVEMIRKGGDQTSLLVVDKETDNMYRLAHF

T6: RHPN1, Q8TCX5
T6 sequence (Q8TCX5 508-602, limits assumed, looked up): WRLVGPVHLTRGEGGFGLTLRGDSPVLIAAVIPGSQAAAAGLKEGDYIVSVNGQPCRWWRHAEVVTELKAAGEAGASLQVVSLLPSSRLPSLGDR

T7: MPP2, Q14168
T7 sequence (Q14168 180-250, limits assumed, looked up): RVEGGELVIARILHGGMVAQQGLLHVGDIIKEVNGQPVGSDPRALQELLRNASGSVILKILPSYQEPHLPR

T8: NHERF3_1, Q5T2W1
T8 sequence (Q5T2W1 4-100, limits assumed, looked up): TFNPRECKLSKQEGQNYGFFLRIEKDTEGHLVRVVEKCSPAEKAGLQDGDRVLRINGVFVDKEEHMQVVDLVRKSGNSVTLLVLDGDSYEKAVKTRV

T9: APBA1_1, Q02410
T9 sequence (Q02410 651-752, limits assumed, looked up): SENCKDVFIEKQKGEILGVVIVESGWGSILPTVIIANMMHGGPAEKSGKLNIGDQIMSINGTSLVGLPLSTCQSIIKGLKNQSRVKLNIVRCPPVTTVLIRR

T10: LNX2_2, Q8N448
T10 sequence (Q8N448 334-432, limits assumed, looked up): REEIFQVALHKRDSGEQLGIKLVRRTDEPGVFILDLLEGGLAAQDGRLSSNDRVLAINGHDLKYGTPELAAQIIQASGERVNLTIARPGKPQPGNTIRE

T11: GRIP1_5, Q9Y3R0
T11 sequence (Q9Y3R0 568-668, limits assumed, looked up): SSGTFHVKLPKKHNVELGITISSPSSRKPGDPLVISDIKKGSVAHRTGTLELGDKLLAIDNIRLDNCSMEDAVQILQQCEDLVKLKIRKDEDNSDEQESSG

T12: DLG3_2, Q92796
T12 sequence (Q92796 221-321, limits assumed, looked up): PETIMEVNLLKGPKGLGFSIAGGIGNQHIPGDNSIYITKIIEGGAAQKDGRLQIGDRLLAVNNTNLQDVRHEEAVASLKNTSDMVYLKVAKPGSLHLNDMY

B1: DUSP5, Q16690 (peptide)
chain: RSPVATATSC
B2: FAM167B, Q9BTA0 (peptide)
chain: NISARRFTLC

Target: GRIP2_4, Q9C0E4
Sequence (Q9C0E4 446-548): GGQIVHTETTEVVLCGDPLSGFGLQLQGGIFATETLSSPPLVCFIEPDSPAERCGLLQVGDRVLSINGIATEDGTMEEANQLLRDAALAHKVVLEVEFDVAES
Assay: holdup assay
Set-up: key: below the threshold = too weak to quantify, mostly under pKd 3.1 to 4
Conditions: plain residues with an end cap or a label only (N-terminal biotin on a linker: ado-ado)

Row | Binder | pKd
1 | B1 | below the threshold
2 | B2 | below the threshold

Target: GRID2IP_2, A4D2P6
Sequence (A4D2P6 272-370): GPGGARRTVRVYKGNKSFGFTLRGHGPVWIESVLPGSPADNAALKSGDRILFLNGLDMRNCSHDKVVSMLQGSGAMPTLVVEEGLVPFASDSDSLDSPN
Assay: holdup assay
Set-up: key: below the threshold = too weak to quantify, mostly under pKd 3.1 to 4
Conditions: plain residues with an end cap or a label only (N-terminal biotin on a linker: ado-ado)

Row | Binder | pKd
3 | B1 | 3.79
4 | B2 | 4.21

Target: NOS1, P29475
Sequence (P29475 9-101): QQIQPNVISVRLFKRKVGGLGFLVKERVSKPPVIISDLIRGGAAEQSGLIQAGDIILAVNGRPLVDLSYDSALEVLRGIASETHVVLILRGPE
Assay: holdup assay
Set-up: key: below the threshold = too weak to quantify, mostly under pKd 3.1 to 4
Conditions: plain residues with an end cap or a label only (N-terminal biotin on a linker: ado-ado)

Row | Binder | pKd
5 | B1 | below the threshold
6 | B2 | 3.81

Target: FRMPD3, Q5JV73
Sequence (Q5JV73 12-100): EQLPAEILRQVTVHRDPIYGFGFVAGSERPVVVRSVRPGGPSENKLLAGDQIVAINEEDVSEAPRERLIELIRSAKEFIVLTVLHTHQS
Assay: holdup assay
Set-up: key: below the threshold = too weak to quantify, mostly under pKd 3.1 to 4
Conditions: plain residues with an end cap or a label only (N-terminal biotin on a linker: ado-ado)

Row | Binder | pKd
7 | B1 | below the threshold
8 | B2 | below the threshold

Target: DLG4_2, P78352
Sequence (P78352 155-259): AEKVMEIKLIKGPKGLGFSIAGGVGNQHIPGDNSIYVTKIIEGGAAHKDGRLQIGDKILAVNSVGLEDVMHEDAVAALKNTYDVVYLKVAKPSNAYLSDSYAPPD
Assay: holdup assay
Set-up: key: below the threshold = too weak to quantify, mostly under pKd 3.1 to 4
Conditions: plain residues with an end cap or a label only (N-terminal biotin on a linker: ado-ado)

Row | Binder | pKd
9 | B1 | below the threshold
10 | B2 | 4.13

Target: T1, GRIP1_3, Q9Y3R0
Assay: holdup assay
Set-up: key: below the threshold = too weak to quantify, mostly under pKd 3.1 to 4
Conditions: plain residues with an end cap or a label only (N-terminal biotin on a linker: ado-ado)

Row | Binder | pKd
11 | B1 | below the threshold
12 | B2 | below the threshold

Target: T2, APBA1_2, Q02410
Assay: holdup assay
Set-up: key: below the threshold = too weak to quantify, mostly under pKd 3.1 to 4
Conditions: plain residues with an end cap or a label only (N-terminal biotin on a linker: ado-ado)

Row | Binder | pKd
13 | B1 | below the threshold
14 | B2 | below the threshold

Target: T3, APBA2_1, Q99767
Assay: holdup assay
Set-up: key: below the threshold = too weak to quantify, mostly under pKd 3.1 to 4
Conditions: plain residues with an end cap or a label only (N-terminal biotin on a linker: ado-ado)

Row | Binder | pKd
15 | B1 | below the threshold
16 | B2 | below the threshold

Target: PICK1, Q9NRD5
Sequence (Q9NRD5 17-115): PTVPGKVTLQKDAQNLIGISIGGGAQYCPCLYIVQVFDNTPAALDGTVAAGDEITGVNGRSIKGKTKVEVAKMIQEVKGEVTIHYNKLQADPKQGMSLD
Assay: holdup assay
Set-up: key: below the threshold = too weak to quantify, mostly under pKd 3.1 to 4
Conditions: plain residues with an end cap or a label only (N-terminal biotin on a linker: ado-ado)

Row | Binder | pKd
17 | B1 | 3.97
18 | B2 | below the threshold

Target: MAGI1_1, Q96QZ7
Sequence (Q96QZ7 1-106): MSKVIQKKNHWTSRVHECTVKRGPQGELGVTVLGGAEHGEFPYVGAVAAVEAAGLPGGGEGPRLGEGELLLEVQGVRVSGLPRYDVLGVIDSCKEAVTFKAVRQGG
Assay: holdup assay
Set-up: key: below the threshold = too weak to quantify, mostly under pKd 3.1 to 4
Conditions: plain residues with an end cap or a label only (N-terminal biotin on a linker: ado-ado)

Row | Binder | pKd
19 | B1 | below the threshold
20 | B2 | 3.59

Target: T4, SYNJ2BP, P57105
Assay: holdup assay
Set-up: key: below the threshold = too weak to quantify, mostly under pKd 3.1 to 4
Conditions: plain residues with an end cap or a label only (N-terminal biotin on a linker: ado-ado)

Row | Binder | pKd
21 | B1 | below the threshold
22 | B2 | 3.75

Target: GRIP2_5, Q9C0E4
Sequence (Q9C0E4 544-642): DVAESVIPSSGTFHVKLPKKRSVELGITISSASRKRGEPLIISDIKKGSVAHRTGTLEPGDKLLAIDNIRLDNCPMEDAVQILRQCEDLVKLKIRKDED
Assay: holdup assay
Set-up: key: below the threshold = too weak to quantify, mostly under pKd 3.1 to 4
Conditions: plain residues with an end cap or a label only (N-terminal biotin on a linker: ado-ado)

Row | Binder | pKd
23 | B1 | below the threshold
24 | B2 | below the threshold

Target: T5, NHERF3_3, Q5T2W1
Assay: holdup assay
Set-up: key: below the threshold = too weak to quantify, mostly under pKd 3.1 to 4
Conditions: plain residues with an end cap or a label only (N-terminal biotin on a linker: ado-ado)

Row | Binder | pKd
25 | B1 | below the threshold
26 | B2 | below the threshold

Target: T6, RHPN1, Q8TCX5
Assay: holdup assay
Set-up: key: below the threshold = too weak to quantify, mostly under pKd 3.1 to 4
Conditions: plain residues with an end cap or a label only (N-terminal biotin on a linker: ado-ado)

Row | Binder | pKd
27 | B1 | below the threshold
28 | B2 | below the threshold

Target: IL16_3, Q14005
Sequence (Q14005 1107-1207): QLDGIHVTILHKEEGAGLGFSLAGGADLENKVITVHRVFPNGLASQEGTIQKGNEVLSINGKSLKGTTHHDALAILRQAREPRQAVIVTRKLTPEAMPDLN
Assay: holdup assay
Set-up: key: below the threshold = too weak to quantify, mostly under pKd 3.1 to 4
Conditions: plain residues with an end cap or a label only (N-terminal biotin on a linker: ado-ado)

Row | Binder | pKd
29 | B1 | below the threshold
30 | B2 | below the threshold

Target: T7, MPP2, Q14168
Assay: holdup assay
Set-up: key: below the threshold = too weak to quantify, mostly under pKd 3.1 to 4
Conditions: plain residues with an end cap or a label only (N-terminal biotin on a linker: ado-ado)

Row | Binder | pKd
31 | B1 | below the threshold
32 | B2 | 3.82

Target: DLG2_3, Q15700
Assay: holdup assay
Set-up: key: below the threshold = too weak to quantify, mostly under pKd 3.1 to 4
Conditions: plain residues with an end cap or a label only (N-terminal biotin on a linker: ado-ado)

Row | Binder | pKd
33 | B1 | 3.7
34 | B2 | 4.43

Target: T8, NHERF3_1, Q5T2W1
Assay: holdup assay
Set-up: key: below the threshold = too weak to quantify, mostly under pKd 3.1 to 4
Conditions: plain residues with an end cap or a label only (N-terminal biotin on a linker: ado-ado)

Row | Binder | pKd
35 | B1 | 3.53
36 | B2 | 4.11

Target: T9, APBA1_1, Q02410
Assay: holdup assay
Set-up: key: below the threshold = too weak to quantify, mostly under pKd 3.1 to 4
Conditions: plain residues with an end cap or a label only (N-terminal biotin on a linker: ado-ado)

Row | Binder | pKd
37 | B1 | below the threshold
38 | B2 | below the threshold

Target: Inadl_8, Q8NI35
Sequence (Q8NI35 1425-1530): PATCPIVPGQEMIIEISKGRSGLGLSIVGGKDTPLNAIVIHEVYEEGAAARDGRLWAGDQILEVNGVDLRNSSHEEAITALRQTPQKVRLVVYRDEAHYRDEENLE
Assay: holdup assay
Set-up: key: below the threshold = too weak to quantify, mostly under pKd 3.1 to 4
Conditions: plain residues with an end cap or a label only (N-terminal biotin on a linker: ado-ado)

Row | Binder | pKd
39 | B1 | below the threshold
40 | B2 | 3.54

Target: HTRA1, Q92743
Sequence (Q92743 360-477): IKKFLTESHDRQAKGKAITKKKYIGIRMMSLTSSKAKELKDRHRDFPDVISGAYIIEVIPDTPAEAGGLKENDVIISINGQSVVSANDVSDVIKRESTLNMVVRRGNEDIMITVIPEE
Assay: holdup assay
Set-up: key: below the threshold = too weak to quantify, mostly under pKd 3.1 to 4
Conditions: plain residues with an end cap or a label only (N-terminal biotin on a linker: ado-ado)

Row | Binder | pKd
41 | B1 | below the threshold
42 | B2 | 4.47

Target: T10, LNX2_2, Q8N448
Assay: holdup assay
Set-up: key: below the threshold = too weak to quantify, mostly under pKd 3.1 to 4
Conditions: plain residues with an end cap or a label only (N-terminal biotin on a linker: ado-ado)

Row | Binder | pKd
43 | B1 | 3.75
44 | B2 | 5.39

Target: T11, GRIP1_5, Q9Y3R0
Assay: holdup assay
Set-up: key: below the threshold = too weak to quantify, mostly under pKd 3.1 to 4
Conditions: plain residues with an end cap or a label only (N-terminal biotin on a linker: ado-ado)

Row | Binder | pKd
45 | B1 | below the threshold
46 | B2 | below the threshold

Target: T12, DLG3_2, Q92796
Assay: holdup assay
Set-up: key: below the threshold = too weak to quantify, mostly under pKd 3.1 to 4
Conditions: plain residues with an end cap or a label only (N-terminal biotin on a linker: ado-ado)

Row | Binder | pKd
47 | B1 | 4.18
48 | B2 | 4.42

Target: PDLIM1, O00151
Sequence (O00151 1-87): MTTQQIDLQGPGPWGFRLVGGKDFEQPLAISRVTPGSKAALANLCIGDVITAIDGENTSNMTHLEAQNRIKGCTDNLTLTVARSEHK
Assay: holdup assay
Set-up: key: below the threshold = too weak to quantify, mostly under pKd 3.1 to 4
Conditions: plain residues with an end cap or a label only (N-terminal biotin on a linker: ado-ado)

Row | Binder | pKd
49 | B1 | below the threshold
50 | B2 | below the threshold

Target: DLG4_1, P78352
Sequence (P78352 62-152): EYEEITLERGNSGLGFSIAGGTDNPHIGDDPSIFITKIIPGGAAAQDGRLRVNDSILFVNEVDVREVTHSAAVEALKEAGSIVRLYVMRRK
Assay: holdup assay
Set-up: key: below the threshold = too weak to quantify, mostly under pKd 3.1 to 4
Conditions: plain residues with an end cap or a label only (N-terminal biotin on a linker: ado-ado)

Row | Binder | pKd
51 | B1 | below the threshold
52 | B2 | 4.35
